# Experimental data: PMC5928214, “Direct binding of CEP85 to STIL ensures robust PLK4 activation and efficient centriole assembly” (Nature Communications, 2018)
# B1: chicken STIL NTD (domain or fragment)
# chain: MEPVLPGADPRLVPDRMVPFSFPLSKYALWDPVPMGDAIGSHIAYYRNPKLSMMEKPLRLAYRHAKQSDKKPFACFLLATLTVDEDEEGVTLTIDRFDPGREAASGSGKVPTASLPGDFLIACTVNVWGPSSDSVIVHSAEDISLAFKDLRDSLCSKHSLDLSKLLTVRAHIVFTENLDNLSFSFHWASVTAANILEYTPVKSVPIIPTALARNLNSPMNIAQVQGTYKCGYLTMDQTRKLLLLLESDPKAYALPLVGVWMSGVTHIYSPQVWACCLRYLFSSSIQERVFSESGSFLIVLYSLTHKEPEFYECGPCRGQTELGFQLLTCNETVHLFKNVEPSDKSPIQFVLSAEKQNAETEFFSR
# B2: H. sapiens CEP85 570-656 (CEP85 cc4) (domain or fragment, human, UniProt Q6P2H3 570-656, looked up)
# chain: ESWQKRYDSLQKIVEKQQQKMDQLRSQVQSLEQEVAQEEGTSQALREEAQRRDSALQQLRTAVKELSVQNQDLIEKNLTLQEHLRQA
# notes: CEP85, human, fourth coiled-coil domain (cc4), residues 570-656; Limits are those printed for the crystallised construct; Parallel coiled-coil dimer in the crystals; monomer-dimer equilibrium in solution at room temperature; also called human CEP85 cc4; CEP85 coiled-coil
# What was measured:
# 3xStrep-GFP-tagged STIL = assay: microtubule recruitment assay in cells (MAP7-mCherry-CEP85 / GFP-STIL co-transfection, fluorescence microscopy); conditions: U-2 OS STIL CRISPR KO cells, co-transfected for 24 h; parent: 98; read off a plot
# [1] = target: T1, H. sapiens CEP85 570-656 (CEP85 cc4) (human, UniProt Q6P2H3 570-656); assay: ITC; 10 °C
# T1 chain: B2 chain
# [2] = target: T2, H. sapiens CEP85 570-656 (CEP85 cc4) (Homo sapiens (Human), UniProt Q6P2H3); assay: ITC (25 °C, plus AUC); text gives only a range of ~14-65 µM, nM is its midpoint; affinity varies ~14-65 µM with experimental conditions; CEP85 cc4 must be dimeric to bind (dimer favoured at reduced temperature)
# T2 chain: B2 chain
# chicken STIL NTD = target: T3, chicken STIL NTD (chicken (Gallus gallus), UniProt A0A8V1A6L7 1-365); assay: ITC + AUC; recombinant chicken STIL NTD and human CEP85 cc4; affinity given as a range depending on the experimental conditions; conditions: both partners purified
# T3 construct: STIL, chicken (Gallus gallus), N-terminal domain (NTD), 66% identical to human STIL NTD; construct details in the Supplementary Information; also called Gallus gallus STIL NTD; STIL NTD WT
# T3 sequence (looked up): B1 chain
# [3] = target: the molecule itself; assay: crystal structure; H. sapiens CEP85 570-656 alone; 18 °C, 100 mM Na-HEPES pH 7.7, 200 mM Na-Citrate, 36% MPD; 1.7 Å
molecule,measurement,setting,value
3xFLAG-MAP7(17-282)-mCherry-CEP85 wild type mutant E644A [human] / 3xStrep-GFP-tagged STIL [not stated] chain 2 E644A,screen value,3xStrep-GFP-tagged STIL,47 % of cells
"3xFLAG-MAP7(17-282)-mCherry-CEP85 wild type mutant Q640A; E644A [human] / 3xStrep-GFP-tagged STIL [not stated] chain 2 Q640A, chain 2 E644A",screen value,3xStrep-GFP-tagged STIL,11 % of cells
3xFLAG-MAP7(17-282)-mCherry-CEP85 wild type mutant Q640A [human] / 3xStrep-GFP-tagged STIL [not stated] chain 2 Q640A,screen value,3xStrep-GFP-tagged STIL,22 % of cells
B1,Kd,[1],59 µM
same,Kd,[2],~30 µM
B2,Kd,chicken STIL NTD,14 to 65 µM
same,stoichiometry N,[3],2
